Measurements published in paper PMC3322289.
Read-outs that look alike come from different tables or passages of the source.

Experiments:
[1] = biological target: Angiotensin II, P01019; experiment: radioligand
[2] = biological target: Angiotensin II, P01019; experiment: radioligand; remark: listed apart in the source

Sequence of Angiotensin II, P01019 (P01019 whole entry, looked up): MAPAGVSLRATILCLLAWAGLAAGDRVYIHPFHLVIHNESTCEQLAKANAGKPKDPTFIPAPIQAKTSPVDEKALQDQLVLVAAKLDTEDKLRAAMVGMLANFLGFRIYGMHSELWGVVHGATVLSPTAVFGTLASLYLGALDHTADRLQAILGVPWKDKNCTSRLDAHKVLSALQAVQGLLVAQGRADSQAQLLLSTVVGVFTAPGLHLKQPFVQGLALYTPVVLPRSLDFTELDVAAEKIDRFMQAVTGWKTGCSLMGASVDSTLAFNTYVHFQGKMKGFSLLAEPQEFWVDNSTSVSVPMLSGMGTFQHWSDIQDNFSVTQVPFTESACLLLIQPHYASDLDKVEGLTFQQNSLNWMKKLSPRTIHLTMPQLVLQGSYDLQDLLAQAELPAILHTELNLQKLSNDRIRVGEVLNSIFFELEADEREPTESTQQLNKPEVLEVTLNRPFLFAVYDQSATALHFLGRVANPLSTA

Kd [1]: 3.57 nM
Kd [2]: 3.32 nM
B1: Angiotensin II type 1 receptor (AT1R), P25095 (protein)
chain: MALNSSAEDGIKRIQDDCPKAGRHSYIFVMIPTLYSIIFVVGIFGNSLVVIVIYFYMKLKTVASVFLLNLALADLCFLLTLPLWAVYTAMEYRWPFGNHLCKIASASVSFNLYASVFLLTCLSIDRYLAIVHPMKSRLRRTMLVAKVTCIIIWLMAGLASLPAVIHRNVYFIENTNITVCAFHYESRNSTLPIGLGLTKNILGFLFPFLIILTSYTLIWKALKKAYEIQKNKPRNDDIFRIIMAIVLFFFFSWVPHQIFTFLDVLIQLGVIHDCKISDIVDTAMPITICIAYFNNCLNPLFYGFLGKKFKKYFLQLLKYIPPKAKSHSSLSTKMSTLSYRPSDNMSSSAKKPASCFEVE
